Among the data in publication PMC6891888 are stoichiometry N values, retold here.

For assay [1], the target named is 16055 NFL TD 2CC+ trimer (HIV-1 (strain 16055)). The assay can be described thus: cryo-EM structure.
The target in assay [2] is BG505 NFL CC+ trimer (HIV-1 (strain BG505)). The assay can be described thus: cryo-EM structure.

As a reminder, the stoichiometry N is a count of units in the complex or per binding partner.

“16055 NFL TD 2CC+ trimer (domain or fragment)” had a stoichiometry N in assay [1] of 3.
In assay [2], “BG505 NFL CC+ trimer (domain or fragment)” came in with a stoichiometry N of 3.
